Test results as given in article PMC3594540 (Nature structural & molecular biology, 2013).

T1: murine Gαq (residues 7–359), biotinylated for bead binding (murine, UniProt P21279 7-359)
T1 sequence: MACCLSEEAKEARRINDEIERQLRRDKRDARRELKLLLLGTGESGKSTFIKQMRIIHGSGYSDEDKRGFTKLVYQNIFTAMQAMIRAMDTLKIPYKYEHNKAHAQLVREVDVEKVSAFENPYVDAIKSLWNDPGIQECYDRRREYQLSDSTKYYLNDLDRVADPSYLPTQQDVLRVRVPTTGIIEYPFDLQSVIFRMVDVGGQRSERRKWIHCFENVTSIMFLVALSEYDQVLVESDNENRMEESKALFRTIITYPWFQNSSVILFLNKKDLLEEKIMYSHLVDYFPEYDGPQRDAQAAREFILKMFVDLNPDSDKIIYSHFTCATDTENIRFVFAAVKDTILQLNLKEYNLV

B1: human PLCβ3 (residues 10–1234) (enzyme)
chain: ALQLEPPTVVETLRRGSKFIKWDEETSSRNLVTLRVDPNGFFLYWTGPNMEVDTLDISSIRDTRTGRYARLPKDPKIREVLGFGGPDARLEEKLMTVVSGPDPVNTVFLNFMAVQDDTAKVWSEELFKLAMNILAQNASRNTFLRKAYTKLKLQVNQDGRIPVKNILKMFSADKKRVETALESCGLKFNRSESIRPDEFSLEIFERFLNKLCLRPDIDKILLEIGAKGKPYLTLEQLMDFINQKQRDPRLNEVLYPPLRPSQARLLIEKYEPNQQFLERDQMSMEGFSRYLGGEENGILPLEALDLSTDMTQPLSAYFINSSHNTYLTAGQLAGTSSVEMYRQALLWGCRCVELDVWKGRPPEEEPFITHGFTMTTEVPLRDVLEAIAETAFKTSPYPVILSFENHVDSAKQQAKMAEYCRSIFGDALLIEPLDKYPLAPGVPLPSPQDLMGRILVKNKKRHRPSAGGPDSAGRKRPLEQSNSALSESSAATEPSSPQLGSPSSDSCPGLSNGEEVGLEKPSLEPQKSLGDEGLNRGPYVLGPADREDEEEDEEEEEQTDPKKPTTDEGTASSEVNATEEMSTLVNYIEPVKFKSFEAARKRNKCFEMSSFVETKAMEQLTKSPMEFVEYNKQQLSRIYPKGTRVDSSNYMPQLFWNVGCQLVALNFQTLDVAMQLNAGVFEYNGRSGYLLKPEFMRRPDKSFDPFTEVIVDGIVANALRVKVISGQFLSDRKVGIYVEVDMFGLPVDTRRKYRTRTSQGNSFNPVWDEEPFDFPKVVLPTLASLRIAAFEEGGKFVGHRILPVSAIRSGYHYVCLRNEANQPLCLPALLIYTEASDYIPDDHQDYAEALINPIKHVSLMDQRARQLAALIGESEAQAGQETCQDTQSQQLGSQPSSNPTPSPLDASPRRPPGPTTSPASTSLSSPGQRDDLIASILSEVAPTPLDELRGHKALVKLRSRQERDLRELRKKHQRKAVTLTRRLLDGLAQAQAEGRCRLRPGALGGAADVEDTKEGEDEAKRYQEFQNRQVQSLLELREAQVDAEAQRRLEHLRQALQRLREVVLDANTTQFKRLKEMNEREKKELQKILDRKRHNSISEAKMRDKHKKEAELTEINRRHITESVNSIRRLEEAQKQRHDRLVAGQQQVLQQLAEEEPKLLAQLAQECQEQRARLPQEIRRSLLGEMPEGLGDGPLVACASNGHAPGSSGHLSGADSESQEENTQL
B2: TEV-cleaved murine Gαq (residues 7–359) (natural protein)
chain: T1 sequence
modifications: at least a fraction of the purified Gαq was palmitoylated (Cys9 and Cys10)
B3: Gαq-ΔN (domain or fragment)
chain: RRELKLLLLGTGESGKSTFIKQMRIIHGSGYSDEDKRGFTKLVYQNIFTAMQAMIRAMDTLKIPYKYEHNKAHAQLVREVDVEKVSAFENPYVDAIKSLWNDPGIQECYDRRREYQLSDSTKYYLNDLDRVADPSYLPTQQDVLRVRVPTTGIIEYPFDLQSVIFRMVDVGGQRSERRKWIHCFENVTSIMFLVALSEYDQVLVESDNENRMEESKALFRTIITYPWFQNSSVILFLNKKDLLEEKIMYSHLVDYFPEYDGPQRDAQAAREFILKMFVDLNPDSDKIIYSHFTCATDTENIRFVFAAVKDTILQLNLKEYNLV
modifications: biotinylated (b-Gαq, in the FCPIA)

How the values were obtained:
[1] = molecular target: T1, murine Gαq (residues 7–359), …; experiment: flow cytometry protein interaction assay
[2] = molecular target: B1; experiment: crystal structure
[3] = molecular target: B1; experiment: cell-based or functional assay

Binder: B1
Ki [1]: 220 nM

Binder: B2
binding result [2]: binds

Binder: B3
EC50 of Gαq-stimulated PIP2 hydrolysis ([3H]-IP3 release from liposomes) [3]: 39 nM
Max specific activity of Gαq-stimulated PIP2 hydrolysis (liposomes) [3]: 1600 nmol IP3/min/nmol PLCβ3
